System: LexA (Escherichia coli)
Assay: EMSA

## YNN1-LexO naked DNA
  Kd: < 5 nM

— publication PMC13440416
